Experimental data: EP2718312B1 (TLA Targeted Immunotherapies AB, dated 2018)
Bridges are numbered along the chain shown (N, C = ends). The star is where a group is joined. Biotin = O=C1N[C@H]2[C@H](CS[C@H]2CCCCC(=O)*)N1

T1: hCCR2b (human, UniProt P41597 1-374)
T1 chain: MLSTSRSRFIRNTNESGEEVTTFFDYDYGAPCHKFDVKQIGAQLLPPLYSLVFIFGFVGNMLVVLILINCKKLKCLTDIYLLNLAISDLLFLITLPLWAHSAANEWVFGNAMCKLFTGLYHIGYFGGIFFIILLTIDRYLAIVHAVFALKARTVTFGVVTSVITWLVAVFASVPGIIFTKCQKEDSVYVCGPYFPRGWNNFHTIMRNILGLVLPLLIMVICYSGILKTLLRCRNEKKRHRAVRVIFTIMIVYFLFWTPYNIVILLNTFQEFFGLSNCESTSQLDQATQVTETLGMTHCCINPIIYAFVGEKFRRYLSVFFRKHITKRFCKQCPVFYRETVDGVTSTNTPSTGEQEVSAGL

B1: recombinant native MCP-2 (ligand, human, UniProt P80075 24-99, looked up)
chain: QPDSVSIPITCCFNVINRKIPIQRLESYTRITNIQCPKEAVIFKTKRGKEVCADPKERWVRDSMKHLDQIFQNLKP
B2: biotinRANTES (CCL5) (ligand)
chain: SPYSSDTTPCCFAYIARPLPRAHIKEYFYTSGKCSNPAVVFVTRKNRQVCANPEKKWVREYINSLEK(Biotin)S-OH
modifications: disulfide 10-34, 11-50; also: TFA salt

Experiments:
hCCR2b = target: T1, hCCR2b; experiment: cell-based or functional assay
hCCR5 = hCCR5 (human, UniProt P51681 1-352); experiment: cell-based or functional assay
hCCR5, sequence (P51681 whole entry): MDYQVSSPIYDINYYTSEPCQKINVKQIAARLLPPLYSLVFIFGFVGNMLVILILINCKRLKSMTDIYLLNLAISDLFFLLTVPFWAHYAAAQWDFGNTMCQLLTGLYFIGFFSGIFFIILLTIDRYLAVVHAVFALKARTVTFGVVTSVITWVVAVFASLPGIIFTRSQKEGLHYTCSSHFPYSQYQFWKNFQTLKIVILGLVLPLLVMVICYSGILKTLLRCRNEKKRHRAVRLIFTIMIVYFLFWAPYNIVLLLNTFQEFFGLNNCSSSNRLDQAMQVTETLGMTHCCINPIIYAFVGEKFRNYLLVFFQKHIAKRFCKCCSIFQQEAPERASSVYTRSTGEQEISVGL

Binder | EC50, Aequorin assay (partial agonist) (hCCR2b) [nM] | EC50, agonist activity in an Aequorin assay (hCCR5) [nM]
B1 | 23.5 | –
B2 | – | 0.5
